Patent US20110098218A1 (AGENCY FOR SCIENCE TECHNOLOGY AND RESEARCH, published 2011)

B1: FoxO1^(1-123)-(168-652) (other, UniProt Q9R1E0 1-123, looked up)
chain: MAEAPQVVETDPDFEPLPRQRSCTWPLPRPEFNQSNSTTSSPAPSGGAAANPDAAASLASASAVSTDFMSNLSLLEESEDFARAPGCVAVAAAAAASRGLCGDFQGPEAGCVHPAPPQPPPTGKAIESSAEKRLTLSQIYEWMVKSVPYFKDKGDSNSSAGWKNSIRHNLSLHSKFIRVQNEGTGKSSWWMLNPEGGKSGKSPRRRAASMDNNSKFAKSRGRAAKKKASLQSGQEGPGDSPGSQFSKWPASPGSHSNDDFDNWSTFRPRTSSNASTISGRLSPIMTEQDDLGDGDVHSLVYPPSAAKMASTLPSLSEISNPENMENLLDNLNLLSSPTSLTVSTQSSPGSMMQQTPCYSFAPPNTSLNSPSPNYSKYTYGQSSMSPLPQMPMQTLQDSKSSYGGLNQYNCAPGLLKELLTSDSPPHNDIMSPVDPGVAQPNSRVLGQNVMMGPNSVMPAYGSQASHNKMMNPSSHTHPGHAQQTASVNGRTLPHVVNTMPHTSAMNRLTPVKTPLQVPLSHPMQMSALGSYSSVSSCNGYGRMGVLHQEKLPSDLDGMFIERLDCDMESIIRNDLMDGDTLDFNFDNVLPNQSFPHSVKTTTHSWVSG
B2: FoxO1^(1-123) (other)
chain: MAEAPQVVETDPDFEPLPRQRSCTWPLPRPEFNQSNSTTSSPAPSGGAAANPDAAASLASASAVSTDFMSNLSLLEESEDFARAPGCVAVAAAAAASRGLCGDFQGPEAGCVHPAPPQPPPTG

Molecular target: T1, Flag-tagged mouse STAT3 (pXJ40-Flag-mSTAT3) (mouse, UniProt P42227 1-770, limits assumed, phosphorylated after leptin treatment (phospho-STAT3); the site is not given)
T1 construct: also called phospho-STAT3; Flag-tagged STAT3; not shown: Flag tag
Test: coimmunoprecipitation

T1 sequence (P42227 whole entry): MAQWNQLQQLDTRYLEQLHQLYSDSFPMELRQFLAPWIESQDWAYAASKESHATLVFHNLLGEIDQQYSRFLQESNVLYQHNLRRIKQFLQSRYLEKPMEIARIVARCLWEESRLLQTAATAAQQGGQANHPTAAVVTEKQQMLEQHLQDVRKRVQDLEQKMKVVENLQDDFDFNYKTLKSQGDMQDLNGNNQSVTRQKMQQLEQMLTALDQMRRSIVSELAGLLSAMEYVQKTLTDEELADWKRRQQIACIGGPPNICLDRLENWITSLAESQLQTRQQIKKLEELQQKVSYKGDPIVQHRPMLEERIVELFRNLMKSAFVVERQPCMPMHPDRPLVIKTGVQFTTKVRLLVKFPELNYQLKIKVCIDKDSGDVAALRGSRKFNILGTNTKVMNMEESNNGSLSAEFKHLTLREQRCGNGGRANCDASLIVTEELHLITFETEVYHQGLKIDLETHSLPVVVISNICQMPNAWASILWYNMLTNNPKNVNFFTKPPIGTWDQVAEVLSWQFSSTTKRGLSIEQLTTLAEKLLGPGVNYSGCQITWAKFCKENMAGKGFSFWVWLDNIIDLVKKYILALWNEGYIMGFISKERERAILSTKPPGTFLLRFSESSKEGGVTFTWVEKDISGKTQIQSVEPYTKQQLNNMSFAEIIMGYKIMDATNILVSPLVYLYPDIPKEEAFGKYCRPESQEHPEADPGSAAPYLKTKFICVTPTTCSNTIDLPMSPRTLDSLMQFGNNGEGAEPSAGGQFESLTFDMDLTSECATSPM

Binder	binding result
B1	no binding
B2	no binding
